Entries after “also recorded” stand apart in the source; their conditions may differ.
What was measured:
[1] = test system: B16F10 melanoma cells; assay: Murine cancer metastasis model: melanoma cell migration to subcutaneous microsphere implants and lymph nodes; type: in vivo, C57BL/6 mice; conditions: B16F10 cells intraperitoneal
Procedure: The animal experiments were carried out using C57BL/6 mice (6-10 week old) from Jackson Laboratory (Bar Harbor, Me., USA). This murine cancer metastasis model comprised of two consecutive steps. First, biomaterial microspheres (75 mg/0.5 ml saline/mouse) were implanted in the dorsal subcutaneous space of mice to elicit localized subcutaneous inflammation. Second, after microsphere implantation for different periods of time (6 hours-14 days), cancer cells (5×10^6 cells/0.2 ml/mouse) were transplanted in the peritoneal cavity. 24 h after tumor cell trans-plantation the animals were sacrificed. The vital organs, lymph nodes, the microsphere implants and surrounding tissues were then recovered and frozen in OCT embedding media (Polysciences Inc., Warrington, Pa., USA) at −80° C. The peripheral blood was also collected for further analysis. […]
Immunohistological analyses for CD11b+ inflammatory cells and HMB45+ melanoma cells were carried out to assess the degree of implant-mediated inflammatory responses and melanoma cell migration, respectively. […] FITC-conjugated antibody incubated tissue section was ready for image analysis. […] All tissue section images were taken using a Leica fluorescence microscope (Leica Microsystems GmbH, Wetzlar, Germany) equipped with a Retiga-EXi CCD camera (QImaging, Surrey, BC, Canada) as described earlier. […]

[2] = test system: CD11b+ inflammatory cells; assay: Murine cancer metastasis model: inflammatory cell recruitment to subcutaneous microsphere implants; type: in vivo, C57BL/6 mice; conditions: vs control
Procedure: The animal experiments were carried out using C57BL/6 mice (6-10 week old) from Jackson Laboratory (Bar Harbor, Me., USA). This murine cancer metastasis model comprised of two consecutive steps. First, biomaterial microspheres (75 mg/0.5 ml saline/mouse) were implanted in the dorsal subcutaneous space of mice to elicit localized subcutaneous inflammation. Second, after microsphere implantation for different periods of time (6 hours-14 days), cancer cells (5×10^6 cells/0.2 ml/mouse) were transplanted in the peritoneal cavity. 24 h after tumor cell trans-plantation the animals were sacrificed. The vital organs, lymph nodes, the microsphere implants and surrounding tissues were then recovered and frozen in OCT embedding media (Polysciences Inc., Warrington, Pa., USA) at -80° C. The peripheral blood was also collected for further analysis. Eight μm thick sections were sliced using a Leica Cryostat (CM1850) and placed on poly-L-lysine coated slides for histological and immunohistochemical analyses. […] FITC-conjugated antibody incubated tissue section was ready for image analysis. […] All tissue section images were taken using a Leica fluorescence microscope (Leica Microsystems GmbH, Wetzlar, Germany) equipped with a Retiga-EXi CCD camera (QImaging, Surrey, BC, Canada) as described earlier. […]

[3] = test system: PC3 prostate cancer cells; assay: PC3 prostate cancer cell recruitment to PEG hydrogel cancer cell traps; type: in vivo, mouse; conditions: C57 mice, released from subcutaneous PEG hydrogel, 24 hours after intravenous transplantation, fluorescence intensity, vs saline
Excerpt: Using near-infrared labeled PC3 prostate cell transplanted mice, the effect of hydrogel cancer cell traps in reducing cancer metastasis was studied. Specifically, PEG hydrogel was fabricated as following. Carboxyl-terminal PEG derivative polymer was synthesized using free radical polymerization. In brief, 4,4′-azobis(4-cyanovaleric acid) and various weight ratios (10:1-20:1) of 2-(2-Methoxyethoxy)ethyl methacrylate (MEO2MA) and oligo(ethylene glycol)monomethyl ether methacrylates (Mw:475;OEOMA475) were dissolved in ethanol to form a 20 wt % monomer solution. The solution was purged with nitrogen gas for 10 min and incubated at 60° C. for 6 h. The solvent was then removed with evaporation under vacuum and the crude polymers are re-dissolved in DI water and were purified with exhaust dialysis against DI water and then lyophilized. The low critical solution temperature (LCST) of the carboxyl-terminal PEG derivative polymers was determined using an UV-vis spectrometer. By changing the molar ratios of MEO2MA to OEOMA475, the carboxyl-terminal PEG derivative polymer with LCST of 32° C. was achieved and the polymer used to fabricate thermogelling bioactive hydrogel scaffold as described below. Incorporation of chemokines/cytokines to PEG hydrogel was achieved by physical adsorption. PEG hydrogel was mixed with vascular endothelial growth factor (VEGF) (100 ng/ml), erythropoietin (EPO) (100 international unit/ml), stromal derived factor-1α (SDF-1α) or saline (as control). The hydrogel samples were then injected into the subcutaneous cavity (under the skin) of C57 mice via 20 gauge needles. The mice were then transplanted intravenously with PC3 prostate cancer cells (5×10^6/mouse).

[4] = Release rates of chemokines/growth factors from cancer cell traps; conditions: for Release rates: optimal release rate from cancer cell traps; for Duration: release from cancer cell traps
Excerpt: The Experiments have been carried out to determine the release rates of various cancer stem cell chemokines/growth factors from cancer cell traps. The optimal release rates for each biomolecules are listed below.
Cancer cell trap size and dimension for human patients. All studies carried out thus far used mice cancer models. Since the cancer cells are recruited based on the chemokines gradient, localized concentrations, but not the systemic concentrations, are the determining factors. In other words, the effectiveness of the cancer cell traps are determined on the localized release rates as listed in the above table.

[5] = Release kinetics of cytokines/growth factors from MB scaffolds; conditions: gelatin MB scaffolds; for sustained release, share of total amounts per day: after the bolus; for bolus release: within the first 24 hours
Excerpt: Chemokine/growth factor loaded PLGA scaffolds were fabricated using our protein microbubble fabrication method. Briefly, 2-20% w/v protein solution with various chemokines was overlaid with nitrogen gas and sonicated using a probe sonicator (Ultrasonix, Bothell, Wash.) at 20 kHz for 10 seconds. Protein solution can be composed of single proteins or protein mixtures in different ratios. The potential protein candidates including albumin, collagen, gelatin, immunoglobulins, extracellular matrix proteins, fibronectin, etc. Protein microbubble solutions can be added to PLGA (3-15% w/v in 1,4 dioxane) in a 1:1 ratio and gently agitated. They were then quenched in liquid nitrogen and lyophilized for 72 hours at 0.01-0.1 mBar vacuum in a Freezone 12 lyophilizer (Labconco, Kansas City, Mo., USA).
The microbubble (MB) scaffolds were analyzed using Scanning Electron Microscopy. […] Protein distribution and internal architecture of the scaffolds was determined by staining histological sections with Coomassie Blue as described earlier. […] In contrast, Coomassie Blue staining of the gelatin MB scaffold sections indicated the presence of protein around the pores and throughout the matrix of the gelatin MB scaffolds (FIG. 12C). The compressive strength of the scaffolds was tested using an MTS Insight 2 machine fitted with a 500 N load cell. Samples (5 mm width and 5 mm thickness) were compressed to 10% strain at a deflection rate of 2 mm/min. The Young's modulus was calculated from the slope of the curve similar to our earlier publication. […] Finally, the release kinetics of cytokines/growth factors from MB scaffolds was determined using Oyster 800-conjugated EPO and Oyster 800-conjugated SDF.

| Compound | recruitment of PC3 prostate cancer cells to the implant sites [3] | Release rates [4] | Duration [4] | further results |
| --- | --- | --- | --- | --- |
| c1cc(CN2CCCNCCNCCCNCC2)ccc1CN1CCCNCCNCCCNCC1 [AMD3100] |  |  |  | accumulation of melanoma cells in lymph nodes ([1]; PLA microsphere-bearing mice, vs saline): no effect; recruitment of melanoma cells (HMB45+) to the subcutaneous microsphere implantation site ([1]; subcutaneous microsphere implants, 24 h after transplantation, vs control): drastically reduced; also recorded: inhibited; inflammatory cell (CD11b+) recruitment to the subcutaneous microsphere implantation site [2]: drastically reduced |
| EPO: erythropoietin, released from cancer cell traps | increased the recruitment | 1.5-2.5 international international units/1 milliliter of hydrogel/particle cancer traps or 1 cubic centimeters scaffold traps/days | >30 days |  |
| Hepatocyte growth factor (HGF/SF): hepatocyte growth factor/scatter factor released from cancer cell traps |  | 15 ng/1 milliliter of ng/1 milliliter of hydrogel/particle cancer traps or 1 cubic centimeters scaffold traps/day | >28 days |  |
| Oyster 800-conjugated EPO: NIR dye conjugated EPO released from gelatin MB scaffolds |  |  |  | sustained release, share of total amounts per day [5]: approximately 2%; bolus release [5]: 20% |
| Oyster 800-conjugated SDF: NIR dye conjugated SDF released from gelatin MB scaffolds |  |  |  | sustained release, share of total amounts per day [5]: approximately 2%; bolus release [5]: 20% |
| RANTES/CCL5: chemokine released from cancer cell traps |  | 10 ng/1 milliliter of ng/1 milliliter of hydrogel/particle cancer traps or 1 cubic centimeters scaffold traps/day | >21 days |  |
| SDF-1α | increased the recruitment | 100 ng/1 milliliter of ng/1 milliliter of hydrogel/particle cancer traps or 1 cubic centimeters scaffold traps/day | >24 days |  |
| VEGF | increased the recruitment |  |  |  |

Source: patent US11413329B2, “Cancer cell trap” (BOARD OF REGENTS, THE UNIVERSITY OF TEXAS SYSTEM, priority 2012, dated 2022)
